This passage reports percent of cell surface HLA-B that is peptide receptive results from publication PMC6056074.

For the assay, the target named is HLA-B*44:05 (human). Kind of assay: flow cytometry on cells; peptide receptivity of surface HLA-B on TAP-sufficient CEM cells: 100 μM peptide in medium at 26°C for 2h, then 20 μg/ml brefeldin A at 37°C for 2h; W6/32 staining, signal of cells without exogenous HLA-B subtracted; read-out (MFI with peptide - MFI without peptide)/MFI with peptide*100.

B1: … (EF10), B*44:05-restricted epitope (peptide)
peptide: EEFGRAFSF
In the case of B1, the percent of cell surface HLA-B that is peptide receptive worked out at 5%.
